Experimental data published in patent publication US20150174221A1.

How the values were obtained:
ADAMTS-4 (human) = ADAMTS-4 (human) (UniProt O75173); assay: cell-based or functional assay
ADAMTS-5 (human) = ADAMTS-5 (human) (UniProt Q9UNA0); assay: cell-based or functional assay
Sequence of UniProt Q9UNA0 (Q9UNA0 262-622 limits assumed): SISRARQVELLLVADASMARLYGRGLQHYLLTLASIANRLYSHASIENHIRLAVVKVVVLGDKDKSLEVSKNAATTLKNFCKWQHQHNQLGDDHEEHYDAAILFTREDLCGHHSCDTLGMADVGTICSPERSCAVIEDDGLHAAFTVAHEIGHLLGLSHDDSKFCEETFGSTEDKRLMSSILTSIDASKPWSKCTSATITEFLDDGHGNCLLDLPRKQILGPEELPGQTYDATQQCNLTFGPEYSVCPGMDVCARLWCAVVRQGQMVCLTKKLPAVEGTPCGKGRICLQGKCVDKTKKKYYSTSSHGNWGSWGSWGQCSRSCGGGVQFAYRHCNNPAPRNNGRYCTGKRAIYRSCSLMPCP

Sequence of UniProt O75173 (O75173 213-685 limits assumed): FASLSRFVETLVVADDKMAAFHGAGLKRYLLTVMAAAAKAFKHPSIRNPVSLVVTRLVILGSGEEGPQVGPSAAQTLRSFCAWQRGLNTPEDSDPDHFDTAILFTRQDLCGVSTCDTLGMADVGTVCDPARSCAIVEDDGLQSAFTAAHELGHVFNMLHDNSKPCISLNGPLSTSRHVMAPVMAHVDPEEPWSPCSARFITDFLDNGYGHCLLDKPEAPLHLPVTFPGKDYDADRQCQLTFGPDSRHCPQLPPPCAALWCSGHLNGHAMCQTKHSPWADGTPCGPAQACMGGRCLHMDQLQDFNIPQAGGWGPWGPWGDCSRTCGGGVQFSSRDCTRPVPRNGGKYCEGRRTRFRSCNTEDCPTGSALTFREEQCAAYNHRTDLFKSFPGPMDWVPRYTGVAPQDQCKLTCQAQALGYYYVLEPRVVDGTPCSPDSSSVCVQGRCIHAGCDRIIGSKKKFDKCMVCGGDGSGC

IC50 needed to inhibit cartilage catabolism by the protease (ADAMTS-4 (human)): 3 µg/mL | IC50 for inhibiting cartilage catabolism of bovine cartilage explants by 500 ng/ml ADAMTS-5 (ADAMTS-5 (human)): 7 µg/mL | IC50 needed to inhibit cartilage catabolism by the protease (ADAMTS-5 (human)): 7 µg/mL | Maximum inhibition of ADAMTS-5-induced cartilage catabolism (ADAMTS-5 (human)): 90%
Substance: purified human A2M (alpha-2-macroglobulin) (from UniProt P01023 24-1474)
